Assay results from paper doi:10.1101/2023.02.03.526715 (bioRxiv, 2023).

Target: recombinant human cardiac troponin I tagged with GST (human, UniProt P19429 1-210)
Assay: ELISA

Chain of recombinant human cardiac troponin I tagged with GST (P19429 whole entry): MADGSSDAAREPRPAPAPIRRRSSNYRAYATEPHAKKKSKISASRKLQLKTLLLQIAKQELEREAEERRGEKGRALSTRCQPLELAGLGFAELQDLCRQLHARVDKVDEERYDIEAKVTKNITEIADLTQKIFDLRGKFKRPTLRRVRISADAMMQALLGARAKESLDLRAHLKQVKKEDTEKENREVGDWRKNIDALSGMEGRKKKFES

AGRKLALKTI [P888, ten amino acid peptide corresponding to ATP synthase subunit d residues 2-11]
binding result: binds
